The record followed here is the DeepSol protein solubility set.

The nature of the data set: soluble on expression in E. coli; label from the status in PepcDB or PDB records.
Turning to “MSNHHSSCSSRTGGAHRRCDCTEDLTENDKLWNDFEGCAQAVARLYSDSSWRNFRGAAEGTTQLYKTSTDSYRRGFEKGFSSGCTSIAKEILQAFRDPSKIDMNIVLEVLYRNMAIPREERLTVNTQNGISSDTLAAVELFQQALNQPQVPPLSTLSLLPPTTREQTTDTLDEFLASQVQRHRKRQRSPNNSTTSPTSQMKRQRRL”, the “soluble on expression in E. coli” value is “soluble”.
For “MSNNEIVFVTGNANKLKEVQSILTQEVDNNNKTIHLINEALDLEELQDTDLNAIALAKGKQAVAALGKGKPVFVEDTALRFDEFNGLPGAYIKWFLKSMGLEKIVKMLEPFENKNAEAVTTICFADSRGEYHFFQGITRGKIVPSRGPTTFGWDSIFEPFDSHGLTYAEMSKDAKNAISHRGKAFAQFKEYLYQNDF” the value was “not soluble”; for “MSNQYDPSQPVVFTDFSPKEGGMRTRLYIEGSNFGNDPTKIHITIGGEKTKTIGADGKKIYCMVPSKAFDGIINVRVDGPDGKPIAEHTFEEEFKYTPATIVGTLLRKVDEDNNSAFQEGSFDEGASIPSNDCMVFDPKYKDGDNRLLFSSNHSDGLHLIDLTERTVKRLFPRTGYSTMYSFTFSADGDTLLFTDDHGQDNTTRANIYYSLRRENFRRIRPYNYGRTAYSLVYMDDGTIFYTTWWEGKVYKMIRNGAIPNIDENAEVAFSLSQISAVGGSHTILFRHPSNKFMYMLSDNFGAVFRADYDPVAKTFGNPSIIAGNMNDKSFKEGTGGSARFNKPQFGVFVKNEKYGEGIGPDNDQYDFYFCDRENHCIWKLDPHGVASLAAGRSNENADGKIWGYVDGNPLHEARFNQPAGLAYDPDTDMFYIGDIDNKGIRYMTTELEHHHHHH”, “not soluble”; for “MSNSHHTSMRGNDMSDNIRVGLIGYGYASKTFHAPLIAGTPGLELAVISSSDETKVKADWPTVTVVSEPKHLFNDPNIDLIVIPTPNDTHFPLAKAALEAGKHVVVDKPFTVTLSQARELDALAKSLGRVLSVFHNRRWDSDFLTLKGLLAEGVLGEVAYFESHFDRFRPQVRDRWREQGGPGSGIWYDLAPHLLDQAITLFGLPVSMTVDLAQLRPGAQSTDYFHAILSYPQRRVILHGTMLAAAESARYIVHGSRGSYVKYGLDPQEERLKNGERLPQEDWGYDMRDGVLTRVEGEERVEETLLTVPGNYPAYYAAIRDALNGDGENPVPASQAIQVMELIELGIESAKHRATLCLA”, “soluble”.
Turning to “MSNVLIINAMKEFAHSKGALNLTLTNVAADFLRESGHQVKITTVDQGYDIESEIENYLWADTIIYQMPAWWMGEPWILKKYIDEVFTDGHGRLYQSDGRTRSDATKGYGSGGLIQGKTYMLSVTWNAPREAFTDPEQFFHGVGVDGVYLPFHKANQFLGMKPLPTFMCNDVIKQPDIEGDIARYRQHLAENVNS”, the “soluble on expression in E. coli” value is given as “not soluble”.
For “MSPEQSPFHAGELAIQERAGVREQVAGFGSRAIRTFMPDQHREFFALLSLLLVGSLDADGYPSASVLWGPPGFARSPEPTRLRIDNLPQADDPLAANLEAGTRLGILGLEWPTRRRNRMNGRVLARDGKGFTVGVEQSFGNCPKYIQARSHQPVSRIASPALQGEGLDPRWLSLVSCSDTLFIASQHADPLRGGVDVSHRGGPPGFLRLGADGRLWLPDYAGNRLFNTLGNLLQDPRCGLLFIDFDNGDLLHLHAEAELFWPGSQPSIPWPAGAERLLALRPAGWRWRRGRLPLAFGEPQPSPFLPAGES”, the “soluble on expression in E. coli” value is listed as “not soluble”.
“MSPGSVVVTGANRGIGLGLVQQLVKDKNIRHIIATARDVEKATELKSIKDSRVHVLPLTVTCDKSLDTFVSKVGEIVGSDGLSLLINNAGVLLSYGTNTEPNRAVIAEQLDVNTTSVVLLTQKLLPLLKNAASKESGDQLSVSRAAVITISSGLGSITDNTSGSAQFPVLAYRMSKAAINMFGRTLAVDLKDDNVLVVNFCPGWVQTNLGGKNAALTVEQSTAELISSFNKLDNSHNGRFFMRNLKPYEF”: the “soluble on expression in E. coli” value is “soluble”.
In the case of “MSPHPQPAPEPVIQYIASCKLPTPWGEFVMHGFEEESGQEHVALTLGEVGDGLPVLARLHSECLTGDALFSLRCDCGFQLEAAMEAISKAGRGALLYLRQEGRGIGLINKIRAYKLQDGGADTVEANERLGFPADMRDFRIARHMLAHLGIGSVKVMTNNPRKLATLEAAGIAVVERVPLQVGRNPYNDRYLDTKAAKLGHMLLKLEHHHHHH”, the “soluble on expression in E. coli” value is “soluble”.
For “MSPQESRRLSIQRCIQSLVHACQCRNANCSLPSCQKMKRVVQHTKGCKRKTNGGCPVCKQLIALCCYHAKHCQENKCPVPFCLNIKHK” the value was “soluble”; for “MSPSQDPSLENYRAIADGIATLFFPHAEVVLHDLRSQRVDYIANNLSKREVGDDSALEDMLEGDSDERNIGPYEKLNWDGQKIRSVSTVLRDSAGQPLAVLCINLNISLFESAKAALDLFLSPSKLIPQPDALFRDDWQERINTFLHGWLRQRQLGLNLLTREHKRELVLALHAEGAFKGKSAANYVANVLNMGRATVYKHLKELKEGGD”, “not soluble”; for “MSPTLSILIPVYKRDCRRLLEELYKQAEELSVGYEIILGDDCSGEPYTSQYIAYEQEGLCRLVSAEENMGAGRLRNRLAEEAQGEQLLILDSDTLPASPDFIERYLRHASGTTVVCGGFVYPPKSTNPLRQRYGAEVESRSAEERARKPHSGFISMAFMIPRKQMLATGFPPNMGMGYEDILFGERLRQAGIPILHIDNPVEHYHCDTAEGFLATTRSYLDNLYCHREELAELVSLLRAYNLLKRLHLMRMVAALWPLIRSSLEKQLTGAKPSLLLFSLYKLLYVASLSLVCAEKS”, “not soluble”.
As for “MSPTTDRIAVVGGSISGLTAALMLRDAGVDVDVYERSPQPLSGFGTGIVVQPELVHYLLEQGVELDSISVPSSSMEYVDALTGERVGSVPADWRFTSYDSIYGGLYELFGPERYHTSKCLVGLSQDSETVQMRFSDGTKAEANWVIGADGGASVVRKRLLGIEPTYAGYVTWRGVLQPGEVADDVWNYFNDKFTYGLLDDGHLIAYPIPGRENAESPRLNFQWYWNVAEGPDLDELMTDVRGIRLPTSVHNNSLNPHNLRQFHSKGESLFKPFRDLVLNASSPFVTVVADATVDRMVHGRVLLIGDAAVTPRPHAAAGGAKASDDARTLAEVFTKNHDLRGSLQSWETRQLQQGHAYLNKVKKMASRLQHGGSFEPGNPAFAFGLPKVDEPSVVTNS”, the “soluble on expression in E. coli” value was “soluble”.
As for “MSQEQVEMIYAKTIEQILEMTGNATANFLPVLGVKSIEMAIGQMEEYLEMLKNLRVDYEKEPNLQSCMSPRLNDSMLIHRNRLARTSKSRLALYRTSPEIARFSRGSPDDIENENLSMSKIRSITEETSILDPTLCMDETTHQRGFLADVSDMNGTVRSRMPSFNFNHISPVPAEKTRRHSVLNVTTDFDVDLSSLCEPSQIEENSGQILFQNVLESALRTPNANNNTILLTDSEVTPVNISNLWNVKLRPGSNRKIDNGIRKEIQRQLACDSQL”, the “soluble on expression in E. coli” value was “not soluble”.
As to “MSQIEFKNVSKVYPNGHVGLKNINLNIEKGEFAVIVGLSGAGKSTLLRSVNRLHDITSGEIFIQGKSITKAHGKALLEMRRNIGMIFQHFNLVKRSSVLRNVLSGRVGYHPTWKMVLGLFPKEDKIKAMDALERVNILDKYNQRSDELSGGQQQRISIARALCQESEIILADEPVASLDPLTTKQVMDDLRKINQELGITILINLHFVDLAKEYGTRIIGLRDGEVVYDGPASEATDDVFSEIYGRTIKEDEKLGVN”, the “soluble on expression in E. coli” value was “not soluble”.
For “MSQQPGVLPENMKRYMGRDAQRMNILAGRIIAETVRSTLGPKGMDKMLVDDLGDVVVTNDGVTILREMSVEHPAAKMLIEVAKTQEKEVGDGTTTAVVVAGELLRKAEELLDQNVHPTIVVKGYQAAAQKAQELLKTIACEVGAQDKEILTKIAMTSITGKGAEKAKEKLAEIIVEAVSAVVDDEGKVDKDLIKIEKKSGASIDDTELIKGVLVDKERVSAQMPKKVTDAKIALLNCAIEETASEMLKDMVAEIKASGANVLFCQKGIDDLAQHYLAKEGIVAARRVKKSDMEKLAKATGANVITNIKDLSAQDLGDAGLVEERKISGDSMIFVEECKHPKAVTMLIRGTTEHVIEEVARAVDDAVGVVGCTIEDGRIVSGGGSTEVELSMKLREYAEGISGREQLAVRAFADALEVIPRTLAENAGLDAIEILVKVRAAHASNGNKCAGLNVFTGAVEDMCENGVVEPLRVKTQAIQSAAESTEMLLRIDDVIAAEKLRGAPDMGDMGGMPGMGGMPGMM”, the “soluble on expression in E. coli” value is “soluble”.
On to “MSQVSTEFIPTRIAILTVSNRRGEEDDTSGHYLRDSAQEAGHHVVDKAIVKENRYAIRAQVSAWIASDDVQVVLITGGTGLTEGDQAPEALLPLFDREVEGFGEVFRMLSFEEIGTSTLQSRAVAGVANKTLIFAMPGSTKACRTAWENIIAPQLDARTRPCNFHPHLKK”, for which the “soluble on expression in E. coli” value is “soluble”.
On to “MSQYIYELEMKVRDYECDLQGIVNNANYQHYLEHTRHEFLTSVGVSFAALHEQGVDPVVARINMAFKTPLKSGDEFVSKLYMKKEGIKYVFYQDIFRKSDQKVVVKSTVETVCVVNGRLSNSELFDNVFAPYLK”, for which the “soluble on expression in E. coli” value is given as “not soluble”.
As to “MSQYNPTTADFEALLMQSFQTNDLNEGSVVKGRVIAIEKDMAIIDAGLKVEGRIPLKEFGAKGKDGSLQIGDEVEVYIERIENAMGEAVLSREKARREESWIRLEEKFNAGARVDGVIFSQVKGGFTVDLDGAVAFLPRSQVDIRPIRDVSPLMHNSQSFEILKMDRRRGNIVVSRRTVLEESRAEQRSEIVQNLEENQIVEGVVKNITDYGAFVDLGGIDGLLHVTDMAWRRVNHPSEILTIGQTIKVQIIRINQDTHRISLGMKQLESDPWESISARYPVGKKITGAVTNITDYGGFVEIEPGIEGLIHVSEMSWTKKNVHPGKILSTSQEVEVVILEIDPSKRRISLGLKQTFENPWVAFANKFPVNSQIEGEVKNKTEFGLFIGLEGDVDGMVHLSDLDWNRPGEQVIDTYNKGDIVKAVVLDVDIEKERISLGIKQLSSDKVGEAAASGELRKGAVVTCEVTAVNDNGIDVKLTDHNLETTIRRTDLARDRDEQRPERFSIGQRVDARITAFDKKTRKLSVSIKALEIAEEKEAVAQYGSTDSGASLGDILGAALKKQEQDLEHHHHHH”, the “soluble on expression in E. coli” value is listed as “soluble”.
On to “MSRCKRCLLPHSAPGAAVDSSGICAFCRSYVPNDKNLSDQLHQQRQLDLEKALADCRGKGPYDVLVCLSGGKDSLYLLYRLKVEYKLNVLAFTTDVNIPDIAWNNIHRTIQKLDIDHLVYRPSAQFYRKLFRYLLMNQEERGAVYTVSYVYAPLFEGDALQVAMEKGIPLVLAGYSPGQPEPERMEFEFSRKLITETDWTPPGLRQSGEFTEEELARFWNPKRFPADTRFPRYLAPFHAWDYDQEAMIRKVHDLELVKRRAHGNPIYSNYPINWLLMYSDLKHFGYNPYAPEFSALIRAGKASRAYWWFMTPIVNFIIRNKLLIGRNTVDQLQQLGLQEDDLKITRPRGAYDPEID”, for which the “soluble on expression in E. coli” value is reported as “not soluble”.
On to “MSRDGSVAPKERINIRYVPATGDTQEDVELPLSMMVVGDFTARADETPIEERTPINIDKDNFNDVLEGMSPNVKVNVENRLSDEEGAQIGVDLTFQNMKDFSPEAIAKSVPELNSLLELREALVALKGPLGNVPAFRKKIASVLQDEEARKKLLDELSIGNDQDAKEE”, for which the “soluble on expression in E. coli” value was “soluble”.
For “MSRDLPSLNALRAFEAAARLHSISLAAEELHVTHGAVSRQVRLLEDDLGVALFGKDGRGVKLTDSGVRLRDACGDAFERLRGVCAELRRQTAEAPFVLGVPGSLLARWFIPRLDQLNRALPDLRLQLSTSEGEFDPRRPGLDAMLWFAEPPWPADMQVFELAPERMGPVVSPRLAQETGLAQAPAARLLQEPLLHTASRPQAWPAWAASQGLAAEALRYGQGFEHLYYLLEAAVAGLGVAIAPEPLVRDDLAAGRLAAPWGFIETDARLALWVPARLHDPRAGRLAQWLREQLAG” the value was “not soluble”.
